According to paper PMC3796545, “Protein-Protein Interactions as a Strategy towards Protein-Specific Drug Design: The Example of Ataxin-1” (PLoS ONE, 2013):
Peptide text beside a SMILES is read from it.

T1: ATX1 AXH (residues A567–K689 of human ATX1) (Homo sapiens, UniProt P54253)
T1 construct: Recombinant ATX1 AXH (residues A567–K689 of human ATX1); His6-GST (N, cleaved yes); made in house; host or cells: E. coli BL21(DE3)pLysS
T1 sequence (P54253 566-688 limits assumed): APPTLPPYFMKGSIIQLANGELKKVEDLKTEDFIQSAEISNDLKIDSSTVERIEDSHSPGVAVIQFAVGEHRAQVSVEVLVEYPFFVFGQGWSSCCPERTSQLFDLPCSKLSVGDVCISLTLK

T2: ATX1 AXH (residues A567-K689 of human ATX1) (human)
T2 chain: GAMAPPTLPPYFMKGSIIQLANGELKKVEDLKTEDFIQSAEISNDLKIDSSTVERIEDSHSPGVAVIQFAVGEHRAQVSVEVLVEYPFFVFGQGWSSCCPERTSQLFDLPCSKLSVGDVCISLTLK

B1: L-CICp with P36 mutated to alanine (peptide)
peptide: VFAWHSLVPFLAPSQ
B2: L-CICp with L44 mutated to alanine (peptide)
peptide: VFPWHSLVPFAAPSQ
B3: L-CICp with P42 mutated to alanine (peptide)
peptide: VFPWHSLVAFLAPSQ
B4: L-CICp with F35 mutated to alanine (peptide)
peptide: VAPWHSLVPFLAPSQ
B5: L-CICp with P46 mutated to alanine (peptide)
peptide: VFPWHSLVPFLAASQ
B6: L-CICp with V34 mutated to alanine (peptide)
peptide: AFPWHSLVPFLAPSQ
B7: L-CICp with V41 mutated to alanine (peptide)
peptide: VFPWHSLAPFLAPSQ
B8: L-CICp with F43 mutated to alanine (peptide)
peptide: VFPWHSLVPALAPSQ
B9: L-CICp (peptide)
peptide: VFPWHSLVPFLAPSQ
B10: L-CICp with L40 mutated to alanine (peptide)
peptide: VFPWHSAVPFLAPSQ
B11: L-CICp with W37 mutated to alanine (peptide)
peptide: VFPAHSLVPFLAPSQ
B12: L-CICp with H38 mutated to alanine (peptide)
peptide: VFPWASLVPFLAPSQ
B13: L-CICp with S39 mutated to alanine (peptide)
peptide: VFPWHALVPFLAPSQ
B14: CICp (peptide)
peptide: PWHSLVPFLAPSQ

target: T1, ATX1 AXH (residues A567–K689 of human ATX1); experiment: ITC binding of CIC peptides to ATX1 AXH; conditions: 25°C, 50 mM Tris-HCl pH 7, 50 mM NaCl, 2 mM TCEP, 0.041 mM AXH in cell, 0.410 mM peptide in syringe, averages of three measurements, read-out: dissociation constant (Kd)
Experimental: Binding affinities of AXH with CIC ligands were measured at 25°C by a MicroCal Omega VP-ITC (MicroCal Inc., Northampton, USA). Both protein and peptides buffers were 50 mM Tris-HCl pH 7, 50 mM NaCl, 2 mM TCEP. Solutions of 0.041 mM AXH in the cell were titrated by injections of a total of 283 µl of 0.410 mM peptide in the syringe in 21 aliquots. Data were processed with the software MicroCal Origin version 5.0 provided by the manufacturer. All dissociation constants were averages of three measurements.

Question: Which Kd does the source give for `CC(C)C[C@H](NC(=O)[C@H](Cc1ccccc1)NC(=O)[C@@H]1CCCN1C(=O)[C@@H](NC(=O)[C@H](CC(C)C)NC(=O)[C@H](CO)NC(=O)[C@H](Cc1c[nH]cn1)NC(=O)[C@H](Cc1c[nH]c2ccccc12)NC(=O)[C@H](C)NC(=O)[C@H](Cc1ccccc1)NC(=O)[C@@H](N)C(C)C)C(C)C)C(=O)N[C@@H](C)C(=O)N1CCC[C@H]1C(=O)N[C@@H](CO)C(=O)N[C@@H](CCC(N)=O)C(=O)O` [P36] (H-VFAWHSLVPFLAPSQ-OH) here?
Answer: 40 nM

Question: With `CC(C)C[C@H](NC(=O)[C@H](Cc1ccccc1)NC(=O)[C@H](C)NC(=O)[C@@H](NC(=O)[C@H](CC(C)C)NC(=O)[C@H](CO)NC(=O)[C@H](Cc1c[nH]cn1)NC(=O)[C@H](Cc1c[nH]c2ccccc12)NC(=O)[C@@H]1CCCN1C(=O)[C@H](Cc1ccccc1)NC(=O)[C@@H](N)C(C)C)C(C)C)C(=O)N[C@@H](C)C(=O)N1CCC[C@H]1C(=O)N[C@@H](CO)C(=O)N[C@@H](CCC(N)=O)C(=O)O` [P42] (H-VFPWHSLVAFLAPSQ-OH) as the molecule, how does the Kd read?
Answer: 40 nM

Question: How did the Kd turn out when `CC(C)C[C@H](NC(=O)[C@H](Cc1ccccc1)NC(=O)[C@@H]1CCCN1C(=O)[C@@H](NC(=O)[C@H](CC(C)C)NC(=O)[C@H](CO)NC(=O)[C@H](Cc1c[nH]cn1)NC(=O)[C@H](Cc1c[nH]c2ccccc12)NC(=O)[C@@H]1CCCN1C(=O)[C@H](Cc1ccccc1)NC(=O)[C@@H](N)C(C)C)C(C)C)C(=O)N[C@@H](C)C(=O)N[C@@H](C)C(=O)N[C@@H](CO)C(=O)N[C@@H](CCC(N)=O)C(=O)O` [P46] (H-VFPWHSLVPFLAASQ-OH) was run?
Answer: 20 nM

Question: `CC(C)C[C@H](NC(=O)[C@H](C)NC(=O)[C@H](Cc1c[nH]cn1)NC(=O)[C@H](Cc1c[nH]c2ccccc12)NC(=O)[C@@H]1CCCN1C(=O)[C@H](Cc1ccccc1)NC(=O)[C@@H](N)C(C)C)C(=O)N[C@H](C(=O)N1CCC[C@H]1C(=O)N[C@@H](Cc1ccccc1)C(=O)N[C@@H](CC(C)C)C(=O)N[C@@H](C)C(=O)N1CCC[C@H]1C(=O)N[C@@H](CO)C(=O)N[C@@H](CCC(N)=O)C(=O)O)C(C)C` [S39] (H-VFPWHALVPFLAPSQ-OH) was tested. Which Kd did it give?
Answer: 10 nM

Question: Which Kd does the source give for `CC(C)C[C@H](NC(=O)[C@H](Cc1ccccc1)NC(=O)[C@@H]1CCCN1C(=O)[C@@H](NC(=O)[C@H](CC(C)C)NC(=O)[C@H](CO)NC(=O)[C@H](Cc1c[nH]cn1)NC(=O)[C@H](Cc1c[nH]c2ccccc12)NC(=O)[C@@H]1CCCN1C(=O)[C@H](Cc1ccccc1)NC(=O)[C@H](C)N)C(C)C)C(=O)N[C@@H](C)C(=O)N1CCC[C@H]1C(=O)N[C@@H](CO)C(=O)N[C@@H](CCC(N)=O)C(=O)O` [V34] (H-AFPWHSLVPFLAPSQ-OH) here?
Answer: 20 nM

Question: With `CC(C)C[C@H](NC(=O)[C@H](Cc1ccccc1)NC(=O)[C@@H]1CCCN1C(=O)[C@H](C)NC(=O)[C@H](CC(C)C)NC(=O)[C@H](CO)NC(=O)[C@H](Cc1c[nH]cn1)NC(=O)[C@H](Cc1c[nH]c2ccccc12)NC(=O)[C@@H]1CCCN1C(=O)[C@H](Cc1ccccc1)NC(=O)[C@@H](N)C(C)C)C(=O)N[C@@H](C)C(=O)N1CCC[C@H]1C(=O)N[C@@H](CO)C(=O)N[C@@H](CCC(N)=O)C(=O)O` [V41] (H-VFPWHSLAPFLAPSQ-OH) as the molecule, how does the Kd read?
Answer: 70 nM

Question: With `CC(C)C[C@H](NC(=O)[C@H](Cc1ccccc1)NC(=O)[C@@H]1CCCN1C(=O)[C@@H](NC(=O)[C@H](CC(C)C)NC(=O)[C@H](CO)NC(=O)[C@H](Cc1c[nH]cn1)NC(=O)[C@H](C)NC(=O)[C@@H]1CCCN1C(=O)[C@H](Cc1ccccc1)NC(=O)[C@@H](N)C(C)C)C(C)C)C(=O)N[C@@H](C)C(=O)N1CCC[C@H]1C(=O)N[C@@H](CO)C(=O)N[C@@H](CCC(N)=O)C(=O)O` [W37] (H-VFPAHSLVPFLAPSQ-OH) as the molecule, how does the Kd read?
Answer: 2600 nM

Target: T2, ATX1 AXH (residues A567-K689 of human …)
Experiment: ITC
Conditions: not given

Question: With B1 as the molecule, how does the Kd read?
Answer: 40 nM

Question: Which Kd does the source give for B2 here?
Answer: 50 nM

Question: For B3, which Kd is on record?
Answer: 40 nM

Question: For B4, which Kd is on record?
Answer: 30 nM

Question: For B5, which Kd is on record?
Answer: 20 nM

Question: For B6, which Kd is on record?
Answer: 20 nM

Question: With B7 as the molecule, how does the Kd read?
Answer: 70 nM

Question: With B8 as the molecule, how does the Kd read?
Answer: 60 nM

Question: For B9, which Kd is on record?
Answer: 30 nM

Question: Which Kd does the source give for B10 here?
Answer: 500 nM

Question: B11 was tested. Which Kd did it give?
Answer: 2600 nM

Question: B12 was tested. Which Kd did it give?
Answer: 50 nM

Question: With B13 as the molecule, how does the Kd read?
Answer: 10 nM

target: ATX1 AXH (residues A567-K689 of human ATX1) (human); experiment: NMR relaxation (T1, T2, rotational correlation time); free AXH, before addition of the peptide; 27°C, 600 MHz; conditions: not given

Question: “ATX1 AXH (residues A567-K689 of human ATX1) (domain or fragment)” was tested. Which stoichiometry N did it give?
Answer: 2

target: ATX1 AXH (residues A567-K689 of human ATX1) (human); experiment: ITC; 0.041 mM AXH in the cell, 0.410 mM peptide in the syringe, 21 aliquots; 25°C; 50 mM Tris-HCl pH 7, 50 mM NaCl, 2 mM TCEP; single-site model; averages of three measurements; conditions: not given
Target sequence in this assay (P54253 567-689): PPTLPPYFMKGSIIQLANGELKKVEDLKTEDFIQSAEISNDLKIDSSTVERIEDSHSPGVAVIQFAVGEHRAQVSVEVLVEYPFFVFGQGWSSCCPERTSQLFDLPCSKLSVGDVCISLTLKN

Question: With B9 as the molecule, how does the Kd read?
Answer: 33 nM

Question: With B10 as the molecule, how does the fold change of Kd against wild-type L-CICp read?
Answer: 10 fold

Question: For B11, which fold change of Kd against wild-type L-CICp is on record?
Answer: 100 fold

Question: B14 was tested. Which Kd did it give?
Answer: 8000 nM
